The record followed here is US20050048605A1 (Takeda / Millennium, published 2005).

Where no end group is shown, it is not given here. [ ]: non-standard residue; d: D form. The star is where a group is joined. Nle = CCCC[C@H](N)C(=O)O; 125I = [125I]*

As a reminder, the IC50 is the midpoint of a concentration-inhibition curve. Low readings indicate higher potency, high ones lower potency. The term Kd denotes the equilibrium constant for the complex coming apart. Low readings indicate a tighter complex, high ones a looser complex.

Assay [1] concerns the target T1, human-derived G protein-coupled receptor protein TGR23-2 (human TGR23-2) (human, UniProt Q6W5P4 1-371).
T1 construct: Expressed in CHO dhfr- cells (pAKKO-TGR23-2)
T1 chain: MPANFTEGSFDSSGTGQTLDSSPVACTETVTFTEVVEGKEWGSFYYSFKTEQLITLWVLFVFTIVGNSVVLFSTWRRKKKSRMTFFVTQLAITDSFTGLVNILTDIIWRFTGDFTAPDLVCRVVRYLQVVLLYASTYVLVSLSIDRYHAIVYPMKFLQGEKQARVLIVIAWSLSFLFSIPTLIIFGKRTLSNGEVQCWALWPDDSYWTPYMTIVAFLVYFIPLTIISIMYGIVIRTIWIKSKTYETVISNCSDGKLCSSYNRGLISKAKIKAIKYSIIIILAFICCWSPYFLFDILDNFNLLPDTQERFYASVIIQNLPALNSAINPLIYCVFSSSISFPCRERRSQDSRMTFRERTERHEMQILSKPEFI
Kind of assay: competition with [Nle10,125I-Tyr15] human TGR23-2 ligand (1-20); membrane fraction of TGR23-2 expressing CHO cells at 1 ug/ml; filter assay. The procedure: Cell membrane fraction prepared from TGR23-1 expressing CHO cells and TGR23-2 expressing CHO cells was diluted to various concentration with assay buffer (20 mM Tris-HCl, 5 mM EDTA, 0.1% BSA, 0.5 mM PMSF, 1 μg/ml Pepstatin, 4 μg/ml E-64, 20 μg/ml Leupeptin, pH7.4), and 200 μl each of the diluent was dispensed into polypropilene test tube (Falcon 2053). In order to determine an amount of maximum binding, 2 μl of DMSO and 2 μl of 10 nM [Nle¹⁰, ¹²⁵I-Tyr¹⁵] human TGR23-2 ligand (1-20) were added to the membrane fraction solution. Further, in order to determine a non-specific binding, 2 μl of 1 μM [Nle¹⁰, Tyr¹⁵] human TGR23-2 ligand (1-20)/DMSO solution was added to the membrane fraction solution. The reaction was done at 25° C. for 90 minutes, and the reaction mixture was filtered by suction filtration using Whatman glassfilter (GF-F) treated with polyethyleneimine. After filtration, a radioactivity remaining on the filter was counted using γ-counter, and an amount of specific binding was estimated by subtracting an amount of non-specific binding from an amount of maximum binding. When the concentration of membrane fraction was changed, a specific binding of [Nle¹⁰, ¹²⁵I-Tyr¹⁵] human TGR23-2 ligand (1-20) was perceived depending on the concentration of membrane fraction. An inhibition of binding activity of the test specimen to TGR23-1 receptor or TGR23-2 receptor (inhibition rate (%)) was represented by a ratio of the value to the specific binding (SB), wherein the value is calculated by subtracting the radioactivity remaining on the filter (X) in the case of adding the test sample and [Nle¹⁰, ¹²⁵I-Tyr¹⁵] human TGR3-2 ligand (1-20) from the total binding (TB) ((TB−X)/SB×100 (%)).

Assay [2] has as its target T2, rat-derived G protein-coupled receptor protein TGR23-5 (rat TGR23-5) (rat, UniProt P0C0L6 1-372).
T2 sequence: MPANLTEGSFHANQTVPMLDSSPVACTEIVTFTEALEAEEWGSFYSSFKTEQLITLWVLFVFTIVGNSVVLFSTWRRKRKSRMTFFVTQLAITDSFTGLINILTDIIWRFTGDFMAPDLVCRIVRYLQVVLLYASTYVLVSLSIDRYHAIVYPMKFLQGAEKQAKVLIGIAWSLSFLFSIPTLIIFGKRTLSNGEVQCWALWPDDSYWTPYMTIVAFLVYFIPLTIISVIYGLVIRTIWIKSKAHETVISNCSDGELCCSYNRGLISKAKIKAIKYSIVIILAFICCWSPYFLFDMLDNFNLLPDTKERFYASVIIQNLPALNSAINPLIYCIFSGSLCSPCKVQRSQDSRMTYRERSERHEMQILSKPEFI
Description: cell-based or functional assay.

For assay [3], the target named is T3, rat-derived G protein-coupled receptor protein TGR23-1 (rat TGR23-1) (rat, UniProt P0C0L6 1-372).
T3 sequence: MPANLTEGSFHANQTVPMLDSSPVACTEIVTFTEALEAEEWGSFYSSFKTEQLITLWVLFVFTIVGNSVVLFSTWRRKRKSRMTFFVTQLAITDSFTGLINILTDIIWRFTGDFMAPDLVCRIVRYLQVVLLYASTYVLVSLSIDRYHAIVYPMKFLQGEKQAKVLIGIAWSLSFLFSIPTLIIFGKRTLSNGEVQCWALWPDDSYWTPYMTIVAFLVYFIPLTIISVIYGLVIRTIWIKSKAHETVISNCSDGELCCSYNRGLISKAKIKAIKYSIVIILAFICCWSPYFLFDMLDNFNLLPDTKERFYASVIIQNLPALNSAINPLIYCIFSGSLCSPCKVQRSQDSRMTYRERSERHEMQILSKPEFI
Kind of assay: cell-based or functional assay.

For assay [4], the target named is T3, rat-derived G protein-coupled receptor …. Description: saturation binding with Scatchard analysis on the membrane fraction of rat TGR23-1 expressing CHO cells; row head 'Binding Constant'; text gives dissociation constant 141±8.71 (pM). As to the method:
(§1) The membrane fractions of rat TGR23-1 expressing CHO cells and rat TGR23-5 expressing CHO cells, which were prepared as described above, were suspended in binding buffer (20 mM Tris-HCl (pH7.4), 5 mM EDTA, 0.1% BSA, 0.5 mM PMSF, 0.1 μg/ml of pepstatin, 20 μg/ml of leupeptine and 4 μg/ml of E-64). The concentrtion was adjusted to 10 μg/ml. The solutiion was used as a membrane fraction solution for binding saturation. Total binding of [Nle¹⁰, ¹²⁵I-Tyr¹⁵] human TGR23-2 ligand (1-20), which was prepared by the method described in Example 26, to the membrane fractions, was obtained by the following method.
(§2) To 200 μl of the membrane fraction solution for binding saturation, 2 μl of dimethylsulfoxide (DMSO) and 2 μl of [Nle¹⁰, ¹²⁵I-Tyr¹⁵] human TGR23-2 ligand (1-20) having various concentrations, were added, and then the mixture was incubated at 25° C. for 90 minutes. […] The radioactivity of [Nle¹⁰, ¹²⁵I-Tyr¹⁵] human TGR23-2 ligand (1-20) trapped on the glass filter was measured by counter, and the obtained value was determined as the total binding. […] A specific binding at a given concentration of [Nle¹⁰, ¹²⁵I-Tyr¹⁵] human TGR23-2 ligand (1-20) is calculated by subtracting the non-specific binding from the total binding at the same concentration. […]

Assay [5] has as its target T1, human-derived G protein-coupled …. Kind of assay: radioligand filter binding on the membrane fraction of TGR23-2 expressing CHO cells. From the text:
(§3) The Receptor Binding Assay Using [Nle¹⁰, ¹²⁵I-Tyr¹⁵] human TGR3-2 ligand (1-20) Using using [Nle¹⁰, ¹²⁵I-Tyr¹⁵] human TGR23-2 ligand (1-20) prepared by the method described in Example 26, and a cell membrane fraction prepared from TGR23-2 expressing CHO cells as described in Example 24 and a cell membrane fraction prepared from TGR23-1 expressing CHO cells by the similar method to that described in Example 24 using TGR23-1 expressing CHO cells instead of TGR23-2 expressing CHO cells, a receptor binding assay was carried out as follows.
(§4) Cell membrane fraction prepared from TGR23-1 expressing CHO cells and TGR23-2 expressing CHO cells was diluted to various concentration with assay buffer (20 mM Tris-HCl, 5 mM EDTA, 0.1% BSA, 0.5 mM PMSF, 1 μg/ml Pepstatin, 4 μg/ml E-64, 20 μg/ml Leupeptin, pH7.4), and 200 μl each of the diluent was dispensed into polypropilene test tube (Falcon 2053). In order to determine an amount of maximum binding, 2 μl of DMSO and 2 μl of 10 nM [Nle¹⁰, ¹²⁵I-Tyr¹⁵] human TGR23-2 ligand (1-20) were added to the membrane fraction solution. […] After filtration, a radioactivity remaining on the filter was counted using γ-counter, and an amount of specific binding was estimated by subtracting an amount of non-specific binding from an amount of maximum binding. […]

The target of assay [6] is T4, human-derived G protein-coupled receptor protein TGR23-1 (human TGR23-1) (human, UniProt Q6W5P4 1-371).
T4 construct: Expressed in CHO dhfr- cells (pAKKO-TGR23-1)
T4 sequence: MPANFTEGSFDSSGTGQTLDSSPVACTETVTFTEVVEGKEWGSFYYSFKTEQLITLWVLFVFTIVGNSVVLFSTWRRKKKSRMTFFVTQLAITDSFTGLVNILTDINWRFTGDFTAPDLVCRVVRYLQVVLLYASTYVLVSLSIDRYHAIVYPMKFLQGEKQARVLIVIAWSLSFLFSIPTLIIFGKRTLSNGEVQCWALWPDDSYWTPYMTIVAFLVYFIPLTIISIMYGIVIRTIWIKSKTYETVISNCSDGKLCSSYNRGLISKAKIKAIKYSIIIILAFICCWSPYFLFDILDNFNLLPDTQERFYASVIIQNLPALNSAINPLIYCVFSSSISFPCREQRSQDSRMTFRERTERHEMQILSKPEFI
Description: radioligand filter binding on the membrane fraction of TGR23-1 expressing CHO cells.
From the text: as §3, §4

The target in assay [7] is T2, rat-derived G protein-coupled receptor …. Kind of assay: saturation binding with Scatchard analysis on the membrane fraction of rat TGR23-5 expressing CHO cells; row head 'Binding Constant'; text gives dissociation constant 125±8.36 (pM). As to the method:
as §1, §2

In assay [1], SFRNGVGSGAKKTSFRRAKQ [mouse TGR23-2 ligand (1-20)] registered an IC50 of 0.0245 nM.
SFRNGVGSGVKKTSFRRA [rat TGR23-2 ligand (1-18)] showed an IC50 in assay [1] of 0.0928 nM. In addition, the “Intracellular Ca increasing activity (EC50)” value was 14 nM in assay [2] and 0.19 nM in assay [3].
With SFRNGVGTG[Nle]KKTSY(125I)QRAKS [[Nle^10, ^125I-Tyr^15] human TGR23-2 ligand (1-20)], the Kd amounted to 0.141 nM in assay [4] and 0.125 nM in assay [7]. The binding result in assay [5] and in assay [6] was “binds” throughout.
In assay [1], SFRNGVGTGMKKTSFQRAKS (also called human TGR23 ligand (1-20)) [human TGR23-2 ligand (1-20)] displayed an IC50 of 0.105 nM.
